Target: GST-Trs33, bacterially expressed (S. cerevisiae) (UniProt Q99394)
Assay: pull-down

UniProt Q99394, sequence (Q99394 whole entry): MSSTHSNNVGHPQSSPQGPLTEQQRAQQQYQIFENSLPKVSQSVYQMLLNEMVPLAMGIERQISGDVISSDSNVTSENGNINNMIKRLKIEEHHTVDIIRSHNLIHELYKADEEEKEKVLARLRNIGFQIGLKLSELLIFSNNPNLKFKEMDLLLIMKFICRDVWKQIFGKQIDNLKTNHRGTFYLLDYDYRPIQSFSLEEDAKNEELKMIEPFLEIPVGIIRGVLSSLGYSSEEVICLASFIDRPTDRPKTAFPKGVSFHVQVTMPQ

## Trs130-HA, bacterially expressed (from UniProt Q03660 1-1102) (natural protein)
  percent co-precipitated: 0.5%

From publication PMC2794200
